The results in this text go back to article PMC9486129, “An evolutionary divergent thermodynamic brake in ZAP-70 fine-tunes the kinetic proofreading in T cells” (The Journal of Biological Chemistry, 2022).

In this experiment the target is T1, ZAP-70 tandem SH2 domain R192A (1-256).
T1 construct: numbers count on: PDB 2OQ1 (holo-tSH2 structure); also called tSH2 R192A; C-SH2 domain mutant; source: E. coli BL21(DE3), purified (Ni-NTA, Q column, gel filtration)
The experiment in a line: ITC; Malvern PEAQ-ITC, 20 °C; C-SH2 mutant tSH2 (R192A, printed R190A in the methods) in 20 mM Hepes pH 8.2, 150 mM NaCl, 5 mM β-mercaptoethanol; titrated with 300 μM peptide; one-site binding model; constant printed under the column Kd2. Particulars: both partners purified. For orientation: ITC needs no label: the signal is the heat of the interaction.

Where no end group is shown, it is not given here. [ ]: non-standard residue; d: D form. pY = N[C@@H](Cc1ccc(OP(=O)(O)O)cc1)C(=O)O

Consider DGL[pY]QGLSTATKDT[pY]DALH [doubly-phosphorylated ITAM-ζ3 peptide], for which binding was characterised by a dissociation constant (Kd) of 12 ± 0.9 µM.

A word on the Kd: it is the free concentration of one partner at which half of the binding sites on the other are occupied at equilibrium, for simple one-to-one binding. Low values mean a tighter complex, high ones a looser complex.
